{"source": "IntAct's records for PubMed 25910212", "parents": {"B1": {"name": "SWI/SNF-related matrix-associated actin-dependent regulator of chromatin subfamily A member 2 (Homo sapiens), P51531-1 (parent)", "chain": "MSTPTDPGAMPHPGPSPGPGPSPGPILGPSPGPGPSPGSVHSMMGPSPGPPSVSHPMPTMGSTDFPQEGMHQMHKPIDGIHDKGIVEDIHCGSMKGTGMRPPHPGMGPPQSPMDQHSQGYMSPHPSPLGAPEHVSSPMSGGGPTPPQMPPSQPGALIPGDPQAMSQPNRGPSPFSPVQLHQLRAQILAYKMLARGQPLPETLQLAVQGKRTLPGLQQQQQQQQQQQQQQQQQQQQQQQPQQQPPQPQTQQQQQPALVNYNRPSGPGPELSGPSTPQKLPVPAPGGRPSPAPPAAAQPPAAAVPGPSVPQPAPGQPSPVLQLQQKQSRISPIQKPQGLDPVEILQEREYRLQARIAHRIQELENLPGSLPPDLRTKATVELKALRLLNFQRQLRQEVVACMRRDTTLETALNSKAYKRSKRQTLREARMTEKLEKQQKIEQERKRRQKHQEYLNSILQHAKDFKEYHRSVAGKIQKLSKAVATWHANTEREQKKETERIEKERMRRLMAEDEEGYRKLIDQKKDRRLAYLLQQTDEYVANLTNLVWEHKQAQAAKEKKKRRRRKKKAEENAEGGESALGPDGEPIDESSQMSDLPVKVTHTETGKVLFGPEAPKASQLDAWLEMNPGYEVAPRSDSEESDSDYEEEDEEEESSRQETEEKILLDPNSEEVSEKDAKQIIETAKQDVDDEYSMQYSARGSQSYYTVAHAISERVEKQSALLINGTLKHYQLQGLEWMVSLYNNNLNGILADEMGLGKTIQTIALITYLMEHKRLNGPYLIIVPLSTLSNWTYEFDKWAPSVVKISYKGTPAMRRSLVPQLRSGKFNVLLTTYEYIIKDKHILAKIRWKYMIVDEGHRMKNHHCKLTQVLNTHYVAPRRILLTGTPLQNKLPELWALLNFLLPTIFKSCSTFEQWFNAPFAMTGERVDLNEEETILIIRRLHKVLRPFLLRRLKKEVESQLPEKVEYVIKCDMSALQKILYRHMQAKGILLTDGSEKDKKGKGGAKTLMNTIMQLRKICNHPYMFQHIEESFAEHLGYSNGVINGAELYRASGKFELLDRILPKLRATNHRVLLFCQMTSLMTIMEDYFAFRNFLYLRLDGTTKSEDRAALLKKFNEPGSQYFIFLLSTRAGGLGLNLQAADTVVIFDSDWNPHQDLQAQDRAHRIGQQNEVRVLRLCTVNSVEEKILAAAKYKLNVDQKVIQAGMFDQKSSSHERRAFLQAILEHEEENEEEDEVPDDETLNQMIARREEEFDLFMRMDMDRRREDARNPKRKPRLMEEDELPSWIIKDDAEVERLTCEEEEEKIFGRGSRQRRDVDYSDALTEKQWLRAIEDGNLEEMEEEVRLKKRKRRRNVDKDPAKEDVEKAKKRRGRPPAEKLSPNPPKLTKQMNAIIDTVINYKDRCNVEKVPSNSQLEIEGNSSGRQLSEVFIQLPSRKELPEYYELIRKPVDFKKIKERIRNHKYRSLGDLEKDVMLLCHNAQTFNLEGSQIYEDSIVLQSVFKSARQKIAKEEESEDESNEEEEEEDEEESESEAKSVKVKIKLNKKDDKGRDKGKGKKRPNRGKAKPVVSDFDSDEEQDEREQSEGSGTDDE", "partner": "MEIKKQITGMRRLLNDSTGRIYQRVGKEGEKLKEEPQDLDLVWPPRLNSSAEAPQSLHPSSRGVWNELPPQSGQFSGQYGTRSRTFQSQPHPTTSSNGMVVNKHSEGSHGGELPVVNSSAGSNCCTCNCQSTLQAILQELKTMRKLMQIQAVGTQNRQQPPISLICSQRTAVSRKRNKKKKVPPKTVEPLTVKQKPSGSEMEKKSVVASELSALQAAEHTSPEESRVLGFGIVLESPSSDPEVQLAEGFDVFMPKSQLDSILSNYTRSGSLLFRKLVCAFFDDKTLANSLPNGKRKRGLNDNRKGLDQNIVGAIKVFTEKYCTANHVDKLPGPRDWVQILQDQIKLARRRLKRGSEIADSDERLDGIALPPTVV"}, "B2": {"name": "U4/U6 small nuclear ribonucleoprotein Prp31 (Homo sapiens), Q8WWY3 (parent)", "chain": "MSLADELLADLEEAAEEEEGGSYGEEEEEPAIEDVQEETQLDLSGDSVKTIAKLWDSKMFAEIMMKIEEYISKQAKASEVMGPVEAAPEYRVIVDANNLTVEIENELNIIHKFIRDKYSKRFPELESLVPNALDYIRTVKELGNSLDKCKNNENLQQILTNATIMVVSVTASTTQGQQLSEEELERLEEACDMALELNASKHRIYEYVESRMSFIAPNLSIIIGASTAAKIMGVAGGLTNLSKMPACNIMLLGAQRKTLSGFSSTSVLPHTGYIYHSDIVQSLPPDLRRKAARLVAAKCTLAARVDSFHESTEGKVGYELKDEIERKFDKWQEPPPVKQVKPLPAPLDGQRKKRGGRRYRKMKERLGLTEIRKQANRMSFGEIEEDAYQEDLGFSLGHLGKSGSGRVRQTQVNEATKARISKTLQRTLQKQSVVYGGKSTIRDRSSGTASSVAFTPLQGLEIVNPQAAEKKVAEANQKYFSSMAEFLKVKGEKSGLMST", "partner": "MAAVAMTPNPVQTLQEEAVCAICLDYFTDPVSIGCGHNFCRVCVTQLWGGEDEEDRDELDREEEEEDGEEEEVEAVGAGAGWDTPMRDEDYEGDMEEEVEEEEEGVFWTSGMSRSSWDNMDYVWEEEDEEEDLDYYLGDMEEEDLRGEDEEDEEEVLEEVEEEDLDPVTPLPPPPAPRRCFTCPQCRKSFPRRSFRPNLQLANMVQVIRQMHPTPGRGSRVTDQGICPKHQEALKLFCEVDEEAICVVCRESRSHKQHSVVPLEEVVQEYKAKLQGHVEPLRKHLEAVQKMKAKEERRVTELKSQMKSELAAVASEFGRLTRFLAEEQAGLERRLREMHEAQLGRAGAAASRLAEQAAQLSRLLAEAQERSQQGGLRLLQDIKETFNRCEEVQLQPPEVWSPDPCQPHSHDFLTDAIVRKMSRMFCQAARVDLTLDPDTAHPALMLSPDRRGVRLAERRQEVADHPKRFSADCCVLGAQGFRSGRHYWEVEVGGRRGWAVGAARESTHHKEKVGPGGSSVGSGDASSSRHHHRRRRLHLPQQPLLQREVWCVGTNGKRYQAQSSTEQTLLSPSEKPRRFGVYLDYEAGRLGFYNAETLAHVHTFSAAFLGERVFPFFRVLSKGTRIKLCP"}, "B3": {"name": "Glutathione S-transferase A2 (Homo sapiens), P09210 (parent)", "chain": "MAEKPKLHYSNIRGRMESIRWLLAAAGVEFEEKFIKSAEDLDKLRNDGYLMFQQVPMVEIDGMKLVQTRAILNYIASKYNLYGKDIKEKALIDMYIEGIADLGEMILLLPFSQPEEQDAKLALIQEKTKNRYFPAFEKVLKSHGQDYLVGNKLSRADIHLVELLYYVEELDSSLISSFPLLKALKTRISNLPTVKKFLQPGSPRKPPMDEKSLEESRKIFRF", "partner": "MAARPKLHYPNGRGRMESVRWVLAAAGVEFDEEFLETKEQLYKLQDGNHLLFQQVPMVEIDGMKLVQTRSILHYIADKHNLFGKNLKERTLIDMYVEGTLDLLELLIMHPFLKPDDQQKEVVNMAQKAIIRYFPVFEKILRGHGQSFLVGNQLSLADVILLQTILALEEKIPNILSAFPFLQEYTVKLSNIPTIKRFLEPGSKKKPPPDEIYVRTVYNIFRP"}, "B4": {"name": "U4/U6 small nuclear ribonucleoprotein Prp31 (Homo sapiens), Q8WWY3 (parent)", "chain": "B2 chain", "partner": "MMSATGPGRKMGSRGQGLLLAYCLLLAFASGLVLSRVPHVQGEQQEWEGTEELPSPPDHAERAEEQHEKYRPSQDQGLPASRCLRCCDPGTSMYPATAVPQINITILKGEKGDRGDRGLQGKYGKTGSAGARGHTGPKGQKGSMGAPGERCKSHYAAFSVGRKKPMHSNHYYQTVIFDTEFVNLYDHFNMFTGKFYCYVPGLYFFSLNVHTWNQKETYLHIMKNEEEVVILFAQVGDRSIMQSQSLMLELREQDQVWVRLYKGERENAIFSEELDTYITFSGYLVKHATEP"}, "B5": {"name": "Emerin (Homo sapiens), P50402 (parent)", "chain": "MDNYADLSDTELTTLLRRYNIPHGPVVGSTRRLYEKKIFEYETQRRRLSPPSSSAASSYSFSDLNSTRGDADMYDLPKKEDALLYQSKGYNDDYYEESYFTTRTYGEPESAGPSRAVRQSVTSFPDADAFHHQVHDDDLLSSSEEECKDRERPMYGRDSAYQSITHYRPVSASRSSLDLSYYPTSSSTSFMSSSSSSSSWLTRRAIRPENRAPGAGLGQDRQVPLWGQLLLFLVFVIVLFFIYHFMQAEEGNPF", "partner": "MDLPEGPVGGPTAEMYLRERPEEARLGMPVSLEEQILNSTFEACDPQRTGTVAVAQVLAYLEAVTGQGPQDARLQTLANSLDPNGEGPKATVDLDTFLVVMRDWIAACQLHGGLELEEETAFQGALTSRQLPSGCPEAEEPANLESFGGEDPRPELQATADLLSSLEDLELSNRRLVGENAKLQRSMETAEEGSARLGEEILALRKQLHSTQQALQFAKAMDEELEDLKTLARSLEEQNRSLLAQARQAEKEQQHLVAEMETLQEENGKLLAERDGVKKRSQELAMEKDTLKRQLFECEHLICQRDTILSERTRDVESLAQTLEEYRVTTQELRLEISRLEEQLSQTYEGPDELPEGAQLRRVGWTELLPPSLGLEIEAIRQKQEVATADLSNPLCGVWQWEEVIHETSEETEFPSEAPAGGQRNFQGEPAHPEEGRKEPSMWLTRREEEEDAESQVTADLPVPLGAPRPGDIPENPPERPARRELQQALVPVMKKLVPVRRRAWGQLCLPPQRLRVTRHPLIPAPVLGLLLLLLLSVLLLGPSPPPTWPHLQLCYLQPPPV"}, "B6": {"name": "Proton-coupled zinc antiporter SLC30A2 (Homo sapiens), Q9BRI3 (parent)", "chain": "MEAKEKQHLLDARPAIRSYTGSLWQEGAGWIPLPRPGLDLQAIELAAQSNHHCHAQKGPDSHCDPKKGKAQRQLYVASAICLLFMIGEVVGGYLAHSLAVMTDAAHLLTDFASMLISLFSLWMSSRPATKTMNFGWQRAEILGALVSVLSIWVVTGVLVYLAVERLISGDYEIDGGTMLITSGCAVAVNIIMGLTLHQSGHGHSHGTTNQQEENPSVRAAFIHVIGDFMQSMGVLVAAYILYFKPEYKYVDPICTFVFSILVLGTTLTILRDVILVLMEGTPKGVDFTAVRDLLLSVEGVEALHSLHIWALTVAQPVLSVHIAIAQNTDAQAVLKTASSRLQGKFHFHTVTIQIEDYSEDMKDCQACQGPSD", "partner": "B5 partner"}}, "data": [{"variants_of": "B1", "details": "with BEND7, Q8N7W2-2", "values": [{"variant": "D1546E", "effect of a mutation on the interaction": "with no effect"}]}, {"variants_of": "B1", "details": "with BEND7, Q8N7W2-2", "remark": "another data set of the same source", "values": [{"variant": "D1546E", "effect of a mutation on the interaction": "with no effect"}]}, {"variants_of": "B2", "details": "with tri41_human TRIM41, Q8WV44", "values": [{"variant": "L107V", "effect of a mutation on the interaction": "with no effect"}]}, {"variants_of": "B3", "details": "with gsta4_human GSTA4, O15217", "values": [{"variant": "P110S", "effect of a mutation on the interaction": "with no effect"}]}, {"variants_of": "B4", "details": "with C1QTNF1, Q9BXJ1-2", "values": [{"variant": "L107V", "effect of a mutation on the interaction": "with no effect"}]}, {"variants_of": "B5", "details": "with kash5_human KASH5, Q8N6L0", "values": [{"variant": "P183T", "effect of a mutation on the interaction": "with no effect"}, {"variant": "P183H", "effect of a mutation on the interaction": "with no effect"}, {"variant": "D72V", "effect of a mutation on the interaction": "with no effect"}, {"variant": "S54F", "effect of a mutation on the interaction": "with no effect"}]}, {"variants_of": "B6", "details": "with kash5_human KASH5, Q8N6L0", "values": [{"variant": "H54R", "effect of a mutation on the interaction": "with no effect"}]}]}
